± gives the standard deviation of the averaged measurements.
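Further: ATP exposure 15 min at 22 °C before imaging.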

This data set has as its system ATP. Put plainly: switch fluorescence ratio, 500 uM ATP over buffer (Cy3 cluster intensity, sum of 5 cycles each) (fold (ratio)); higher = stronger signal-on switching upon ATP binding; sequences stand for … in TCGTCGGCAGCGTCAGATGTGTATAAGAGACAGTTTTTTTTTTTTTTTTTTTTTTTTT…TC. The note with it: aptamer strand: ATP DNA aptamer (quencher-CACCTGGGGGAGTATTGCGGAGGAAGG + anchor), 100 nM annealed; ATP concentration: 500 uM. Put shortly: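 The fluorescence ratio divides summed target-cycle Cy3 intensity by summed buffer-cycle Cy3 intensity for each cluster and is averaged per switch-domain sequence. Cy3-labelled switching-strand clusters on a modified Illumina MiSeq flow-cell were annealed to 100 nM quencher-labelled ATP aptamer, then imaged in selection buffer and again after 15 min with 500 uM ATP at 22 °C. Five such cycles were run, with NaOH stripping and re-annealing between them, and clusters outside 100-1000 RFU were excluded.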
For AGCGAGGGGA, the switch fluorescence ratio was 1.04 ± 0.02.
As to TCATATTAAG, the switch fluorescence ratio was 0.9911 ± 0.0028.
As for GAAGCTTTAG, the figure is 1.06 ± 0.019; as for GGGAGTAGCA, 1.02 ± 0.026.
Turning to GGTTTTTTCT, the switch fluorescence ratio worked out at 1.03 ± 0.088.
Consider AGGGCCTCTT, for which the switch fluorescence ratio is 0.986 ± 0.028.
Regarding TGAAACAGGT, the switch fluorescence ratio worked out at 1.001 ± 0.0032.
For GGAAATGACT, the switch fluorescence ratio is 1.01 ± 0.021.
With CAGGGGTGCT, the switch fluorescence ratio is 1.03 ± 0.03.
Turning to CGGGTGGTCG, the switch fluorescence ratio stood at 0.8742 ± 0.0063.
As for ACTCAGGGGG, the switch fluorescence ratio amounted to 1.27 ± 0.32.
Regarding CATGAATGGA, the switch fluorescence ratio stood at 1.01 ± 0.017.
As to GAGAGTACGT, the switch fluorescence ratio amounted to 0.964 ± 0.013.
As for AGACGGTATT, the figure is 1.056 ± 0.0039.
On to TTTATTTGAA, for which the switch fluorescence ratio is 1.01 ± 0.025.
Consider TACTGGGGCT, for which the switch fluorescence ratio came out at 1.04 ± 0.034.
For TCGGGGGGCT, the switch fluorescence ratio came out at 1.06 ± 0.048.
For AATAAGGCCG the value was 0.996 ± 0.076; for AATCGGGACC, 0.9905 ± 0.002; for CGGAGGGGTA, 1.13 ± 0.16.
Consider AAGTTACGTT, for which the switch fluorescence ratio stood at 1.04 ± 0.081.
Regarding GAGCGTCGGA, the switch fluorescence ratio was 1.03 ± 0.12.
As for TTTTAGTTTC, the switch fluorescence ratio worked out at 1.015 ± 0.0022.
Consider GTGATATGAG, for which the switch fluorescence ratio was 1.01 ± 0.036.
For the sequence GGGGTGGATT, the switch fluorescence ratio came to 0.974 ± 0.013.
In the case of AAAATTAGTT, the switch fluorescence ratio is 1.03 ± 0.012.
As for TTGGGTGGTT, the switch fluorescence ratio was determined as 0.9815 ± 0.0026.
Take ATATTGAGGC: the switch fluorescence ratio was found to be 1.01 ± 0.038.
For the sequence TCGGCAGGGA, the switch fluorescence ratio was 1.01 ± 0.051.
GGGGGATACT: the switch fluorescence ratio is 1.04 ± 0.037.
On to GCGAGGGTGT, for which the switch fluorescence ratio is 1.12 ± 0.039.
For TTAGGTTGGG the value was 1.02 ± 0.056; for AAAATGTAGG, 0.957 ± 0.03.
As for ACTAAACTTG, the figure is 1.014 ± 0.0022; as for AGGTAATACA, 1.08 ± 0.029; as for TTTTTTCCGG, 1.21 ± 0.17.
On to GATTTAGACT, for which the switch fluorescence ratio amounted to 1.04 ± 0.071.
On to AACGGCCATG, for which the switch fluorescence ratio was 1.02 ± 0.037.
For the sequence ACGGTGCTTG, the switch fluorescence ratio came to 0.99 ± 0.015.
With AATTATACCC, the switch fluorescence ratio came to 1.03 ± 0.029.
For the sequence CGTTAGGGCA, the switch fluorescence ratio came to 0.979 ± 0.02.
AAAGGGTTGA: the switch fluorescence ratio worked out at 0.9559 ± 0.0011.
As for TTTAACGGTG, the switch fluorescence ratio is 1.02 ± 0.027.
For GCACTCCAGG the value was 2.61 ± 0.22; for CGTTTTTCGT, 0.9779 ± 0.0038.
Regarding GTTTTAGAGG, the switch fluorescence ratio is 1.01 ± 0.015.
For TTGGTAAAGG the value was 0.999 ± 0.048; for AATCGGCCGG, 1.01 ± 0.053.
Consider TGGAATATGG, for which the switch fluorescence ratio turned out to be 1.04 ± 0.021.
As for ATGGTTTTG, the switch fluorescence ratio amounted to 0.975 ± 0.047.
In the case of AGTAGCTTTT, the switch fluorescence ratio worked out at 0.997 ± 0.016.
In the case of GATATAAGCT, the switch fluorescence ratio turned out to be 1.05 ± 0.066.
For AGGTTGAAAG the value was 0.974 ± 0.035; for ATTGTTTGGG, 1.03 ± 0.019; for GAGGGAGATT, 1.02 ± 0.05.
As to TGGTTTTACG, the switch fluorescence ratio turned out to be 1.019 ± 0.01.
In the case of GGGGTTTTCT, the switch fluorescence ratio is 1.01 ± 0.016.
As for GACTGTAAGC, the figure is 1.057 ± 0.0074; as for CTCGGGGCGG, 1.02 ± 0.037; as for TGGGGGCATT, 1.01 ± 0.033.
With AGTTTGCCAG, the switch fluorescence ratio came out at 0.96403 ± 0.00025.
GGTCAATTAT: the switch fluorescence ratio was 1.05 ± 0.068.
Take GGCAATGAAG: the switch fluorescence ratio was determined as 1.03 ± 0.049.
Turning to TAGTCGAGGG, the switch fluorescence ratio turned out to be 0.971 ± 0.024.
With GGTTGACGAG, the switch fluorescence ratio was determined as 0.986 ± 0.012.
As for AATAAAAGAG, the switch fluorescence ratio is 0.962 ± 0.018.
Consider AACTATCTTT, for which the switch fluorescence ratio is 1.04 ± 0.033.
As for TGCGGGCAAG, the switch fluorescence ratio turned out to be 0.992 ± 0.015.
For CGGATGGCGA, the switch fluorescence ratio amounted to 1.03 ± 0.021.
Regarding CCTTTCTATT, the switch fluorescence ratio was 0.99 ± 0.018.
As for AGAGAAGGGT, the figure is 0.996 ± 0.017.
For ATCTGGGGGG the value was 1 ± 0.064.
Regarding TCAGGCGGGC, the switch fluorescence ratio is 1.015 ± 0.0058.
Take GCTATGGTGG: the switch fluorescence ratio came to 0.987 ± 0.021.
For CTGGGGTTCG, the switch fluorescence ratio stood at 1.0213 ± 0.00034.
Turning to CTTGGAAATA, the switch fluorescence ratio turned out to be 1.02 ± 0.013.
As for AGACAGGGAG, the figure is 1.01 ± 0.031; as for CCTGAGGAGA, 1.03 ± 0.015; as for TATGAGGTTG, 1 ± 0.03.
Regarding TCAGGCGTTG, the switch fluorescence ratio turned out to be 0.971 ± 0.027.
On to TGGGCCGGGT, for which the switch fluorescence ratio stood at 1.03 ± 0.055.
Turning to AAGGCTGTGT, the switch fluorescence ratio came to 1.001 ± 0.0095.
As for GGTGTGGGGT, the figure is 0.986 ± 0.02.
For TTTGCTTTTC the value was 0.994 ± 0.05; for TCAGCCGGGA, 1.08 ± 0.024; for AAGCCCGGGG, 1.02 ± 0.025.
AAGGTGTTGT: the switch fluorescence ratio was determined as 1.04 ± 0.066.
As for GAGTGGGCCT, the switch fluorescence ratio worked out at 0.963 ± 0.044.
Turning to ATGCAGCAGT, the switch fluorescence ratio was 1.46 ± 0.051.
As for TGCCCGAGCT, the switch fluorescence ratio came out at 1.03 ± 0.1.
Take AGTCCTTATT: the switch fluorescence ratio was 0.977 ± 0.021.
In the case of AACGAAAGGC, the switch fluorescence ratio was determined as 1.19 ± 0.012.
For CTGGGGGTGG the value was 0.964 ± 0.011; for ACGGCTGGAA, 0.969 ± 0.015; for GGTAATTGCG, 0.99 ± 0.022.
As for CAGGCGTGTG, the switch fluorescence ratio turned out to be 0.995 ± 0.011.
For TCATTCGTTT the value was 1.01 ± 0.016; for ATTTCAAATA, 1.01 ± 0.043; for CGCCTCGAGG, 0.9786 ± 0.0027.
Regarding GGAGGAATTT, the switch fluorescence ratio stood at 1.01 ± 0.016.
Take GATCAGAGGA: the switch fluorescence ratio worked out at 1.05 ± 0.039.
Take TTTAGGGAAT: the switch fluorescence ratio worked out at 1 ± 0.013.
With AGAATGATTA, the switch fluorescence ratio turned out to be 0.986 ± 0.01.
Regarding CGGTATGGGG, the switch fluorescence ratio is 1 ± 0.029.
On to TCAGAAGGGT, for which the switch fluorescence ratio was 0.994 ± 0.03.
On to TCAATTAGGC, for which the switch fluorescence ratio amounted to 1.05 ± 0.027.
Regarding GTTTTAGGCT, the switch fluorescence ratio was determined as 0.973 ± 0.061.
Consider CTTTTGGGGG, for which the switch fluorescence ratio worked out at 0.991 ± 0.028.
On to AGTTGTATT, for which the switch fluorescence ratio was 0.967 ± 0.022.
Regarding CAGGATTGGC, the switch fluorescence ratio came to 1.07 ± 0.019.
On to TCCGTTGTTT, for which the switch fluorescence ratio was 1.03 ± 0.044.
GCGAATGATG: the switch fluorescence ratio was 0.966 ± 0.024.
As to ATACAAGGCA, the switch fluorescence ratio came to 0.956 ± 0.053.
Turning to CGCCGTCTGG, the switch fluorescence ratio is 1.03 ± 0.0039.
Consider GAGGGGTTGA, for which the switch fluorescence ratio turned out to be 1.01 ± 0.077.
For TAAGCATGGA the value was 1.04 ± 0.013; for TGTCTATTTT, 1.019 ± 0.0033.
For the sequence ATTCCCAGGG, the switch fluorescence ratio was 2.067 ± 0.017.
As for ATGATCCCGC, the figure is 1.2 ± 0.019.
As for TTTTGGAGAG, the switch fluorescence ratio was 1.01 ± 0.016.
